No end group written: not given here.
T1: PACAP-R2 (Homo sapiens, UniProt P32241)
T1 construct: expressed in transfected cells; host or cells: CHO cells
T1 sequence (P32241 31-457): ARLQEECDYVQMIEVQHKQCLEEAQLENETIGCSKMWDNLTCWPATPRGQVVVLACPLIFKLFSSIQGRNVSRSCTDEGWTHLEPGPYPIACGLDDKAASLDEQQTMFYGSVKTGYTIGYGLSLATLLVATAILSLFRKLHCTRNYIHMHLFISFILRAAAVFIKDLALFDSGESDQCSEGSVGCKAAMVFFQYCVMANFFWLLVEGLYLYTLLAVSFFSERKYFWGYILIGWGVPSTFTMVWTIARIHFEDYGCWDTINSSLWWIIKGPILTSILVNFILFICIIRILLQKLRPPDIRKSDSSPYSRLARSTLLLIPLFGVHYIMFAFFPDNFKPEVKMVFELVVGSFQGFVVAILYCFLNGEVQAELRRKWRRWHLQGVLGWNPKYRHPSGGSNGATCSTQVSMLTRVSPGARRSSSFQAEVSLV

T2: PACAP-R3 (human, UniProt P41587 24-438)
T2 sequence (looked up): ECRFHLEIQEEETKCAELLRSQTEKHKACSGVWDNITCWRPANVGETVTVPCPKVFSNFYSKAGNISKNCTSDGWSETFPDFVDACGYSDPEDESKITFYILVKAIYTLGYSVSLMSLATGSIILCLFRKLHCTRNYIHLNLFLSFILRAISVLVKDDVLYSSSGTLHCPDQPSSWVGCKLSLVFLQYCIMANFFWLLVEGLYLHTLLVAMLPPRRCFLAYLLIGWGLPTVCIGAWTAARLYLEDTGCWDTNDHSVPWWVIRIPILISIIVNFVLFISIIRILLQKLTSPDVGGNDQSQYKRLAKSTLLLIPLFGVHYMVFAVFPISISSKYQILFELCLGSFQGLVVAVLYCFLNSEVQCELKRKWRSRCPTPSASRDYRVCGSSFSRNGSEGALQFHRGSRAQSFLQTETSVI


Target: T1, PACAP-R2
Test: Cyclic AMP SPA on CHO cells transfected with PACAP-R2
Assay type: cell-based
Conditions: cAMP SPA, concentration at which 50% of maximum PACAP27 activity is achieved, NA = no detectable activities, read-out: R2 EC50
Method: CHO cells expressing the PACAP R3 were plated in 96-well plates (Costar) at 8×10^4 cell/well and grown at 37 C. for 24 hours in α MEM+nucleosides+glutamine (Giobco BRL), 10% FBS, 100 μg/ml Pen/Strep, 0.3 mg/ml glutamine, 1 mM HEPES, 0.5 mg/ml Geneticin (Gibco BRL). The media was removed and the plates were washed with PBS. The cells were incubated with a peptide, in Hepes-PBS-BSA with 0.4 mg/mlSoybean Trypsin Inhibitor, 0.5 mg/ml Bacitracin, 100 uM IBMX, for 15 min at 37 C. Cyclic AMP in the cell extracts was quantitated using the cAMP SPA direct screening assay system (Amersham Pharmacia Biotech Inc, Piscataway, N.J.,). The peptides shown in Table 3 were assayed for cAMP activity.
EC50 is defined as the concentration of the polypeptide at which 50% of maximum PACAP27 activity is achieved. “NA” denotes no detectable activities. “R3 Selectivity” is derived from the ratio of EC50 at R2 versus EC50 at R3.

| Molecule | EC50 [nM] |
| --- | --- |
| HSDAVFTDNYTRLRKQLAAKKYLNDIKNGGT [Peptide R3P24] | 45 |
| CC[C@H](C)[C@H](NC(=O)[C@H](CO)NC(=O)[C@H](CC(N)=O)NC(=O)[C@H](CC(C)C)NC(=O)[C@H](Cc1ccc(O)cc1)NC(=O)[C@H](CCCCN)NC(=O)[C@H](CCCCN)NC(=O)[C@H](C)NC(=O)[C@H](C)NC(=O)[C@H](CCSC)NC(=O)[C@H](CCC(N)=O)NC(=O)[C@H](CCCCN)NC(=O)[C@H](CCCNC(=N)N)NC(=O)[C@H](CC(C)C)NC(=O)[C@H](CCCNC(=N)N)NC(=O)[C@@H](NC(=O)[C@H](Cc1ccc(O)cc1)NC(=O)[C@H](CC(N)=O)NC(=O)[C@H](CC(=O)O)NC(=O)[C@@H](NC(=O)[C@H](Cc1ccccc1)NC(=O)[C@@H](NC(=O)[C@H](C)NC(=O)[C@H](CC(=O)O)NC(=O)[C@H](CO)NC(=O)[C@@H](N)Cc1c[nH]cn1)C(C)C)[C@@H](C)O)[C@@H](C)O)C(=O)N[C@@H](CCCCN)C(=O)N[C@@H](CC(N)=O)C(=O)N[C@@H](CCCCN)C(=O)N[C@@H](CCSC)C(=O)O [Peptide R3P163] | 40 |
| CC[C@H](C)[C@H](NC(=O)[C@H](CO)NC(=O)[C@H](CC(N)=O)NC(=O)[C@H](CC(C)C)NC(=O)[C@H](Cc1ccc(O)cc1)NC(=O)[C@H](CCCCN)NC(=O)[C@H](CCCCN)NC(=O)[C@H](C)NC(=O)[C@H](C)NC(=O)[C@H](CCSC)NC(=O)[C@H](CCC(N)=O)NC(=O)[C@H](CCCCN)NC(=O)[C@H](CCCNC(=N)N)NC(=O)[C@H](CC(C)C)NC(=O)[C@H](CCCNC(=N)N)NC(=O)[C@@H](NC(=O)[C@H](Cc1ccc(O)cc1)NC(=O)[C@H](CC(N)=O)NC(=O)[C@H](CC(=O)O)NC(=O)[C@@H](NC(=O)[C@H](Cc1ccccc1)NC(=O)[C@@H](NC(=O)[C@H](C)NC(=O)[C@H](CC(=O)O)NC(=O)[C@H](CO)NC(=O)[C@@H](N)Cc1c[nH]cn1)C(C)C)[C@@H](C)O)[C@@H](C)O)C(=O)N[C@@H](CCCCN)C(=O)N[C@@H](CC(N)=O)C(=O)N[C@@H](CCCCN)C(=O)N[C@@H](Cc1ccc(O)cc1)C(=O)O [Peptide R3P171] | 80 |
| CC[C@H](C)[C@H](NC(=O)[C@H](CO)NC(=O)[C@H](CC(N)=O)NC(=O)[C@H](CC(C)C)NC(=O)[C@H](Cc1ccc(O)cc1)NC(=O)[C@H](CCCCN)NC(=O)[C@H](CCCCN)NC(=O)[C@H](CCSC)NC(=O)[C@H](C)NC(=O)[C@H](CCSC)NC(=O)[C@H](CCC(N)=O)NC(=O)[C@H](CCCCN)NC(=O)[C@H](CCCNC(=N)N)NC(=O)[C@H](CC(C)C)NC(=O)[C@H](CCCNC(=N)N)NC(=O)[C@@H](NC(=O)[C@H](Cc1ccc(O)cc1)NC(=O)[C@H](CC(N)=O)NC(=O)[C@H](CC(=O)O)NC(=O)[C@@H](NC(=O)[C@H](Cc1ccccc1)NC(=O)[C@@H](NC(=O)[C@H](C)NC(=O)[C@H](CC(=O)O)NC(=O)[C@H](CO)NC(=O)[C@@H](N)Cc1c[nH]cn1)C(C)C)[C@@H](C)O)[C@@H](C)O)C(=O)N[C@@H](CCCCN)C(=O)N[C@@H](CC(N)=O)C(=O)N[C@@H](CCCCN)C(=O)N[C@@H](CCCNC(=N)N)C(=O)O [Peptide R3P106] | 2 |
| CC[C@H](C)[C@H](NC(=O)[C@H](CO)NC(=O)[C@H](CC(N)=O)NC(=O)[C@H](CC(C)C)NC(=O)[C@H](Cc1ccc(O)cc1)NC(=O)[C@H](CCCCN)NC(=O)[C@H](CCCCN)NC(=O)[C@H](C)NC(=O)[C@H](C)NC(=O)[C@H](CCSC)NC(=O)[C@H](CCC(N)=O)NC(=O)[C@H](CCCCN)NC(=O)[C@H](CCCNC(=N)N)NC(=O)[C@H](CC(C)C)NC(=O)[C@H](CCCNC(=N)N)NC(=O)[C@@H](NC(=O)[C@H](Cc1ccc(O)cc1)NC(=O)[C@H](CC(N)=O)NC(=O)[C@H](CC(=O)O)NC(=O)[C@@H](NC(=O)[C@H](Cc1ccccc1)NC(=O)[C@@H](NC(=O)[C@H](C)NC(=O)[C@H](CC(=O)O)NC(=O)[C@H](CO)NC(=O)[C@@H](N)Cc1c[nH]cn1)C(C)C)[C@@H](C)O)[C@@H](C)O)C(=O)N[C@@H](CCCCN)C(=O)N[C@@H](CC(N)=O)C(=O)N[C@@H](CCCCN)C(=O)N[C@@H](CCC(N)=O)C(=O)O [Peptide R3P166] | 50 |
| CC[C@H](C)[C@H](NC(=O)[C@H](CO)NC(=O)[C@H](CC(N)=O)NC(=O)[C@H](CC(C)C)NC(=O)[C@H](Cc1ccc(O)cc1)NC(=O)[C@H](CCCCN)NC(=O)[C@H](CCCCN)NC(=O)[C@H](C)NC(=O)[C@H](C)NC(=O)[C@H](CCSC)NC(=O)[C@H](CCC(N)=O)NC(=O)[C@H](CCCCN)NC(=O)[C@H](CCCNC(=N)N)NC(=O)[C@H](CC(C)C)NC(=O)[C@H](CCCNC(=N)N)NC(=O)[C@@H](NC(=O)[C@H](Cc1ccc(O)cc1)NC(=O)[C@H](CC(N)=O)NC(=O)[C@H](CC(=O)O)NC(=O)[C@@H](NC(=O)[C@H](Cc1ccccc1)NC(=O)[C@@H](NC(=O)[C@H](C)NC(=O)[C@H](CC(=O)O)NC(=O)[C@H](CO)NC(=O)[C@@H](N)Cc1c[nH]cn1)C(C)C)[C@@H](C)O)[C@@H](C)O)C(=O)N[C@@H](CCSC)C(=O)N[C@@H](CC(N)=O)C(=O)N[C@@H](CCCCN)C(=O)N[C@@H](CCCNC(=N)N)C(=O)O [Peptide R3P124] | 3 |

Target: T2, PACAP-R3
Test: cell-based or functional assay
Conditions: not given

| R3 EC50 [nM] | R3 Selectivity | Molecule |
| --- | --- | --- |
| 0.03 | 10 | HSDAVFTDNYTRLRKQMAVKKYLNSIKN [R3P42] |
| 0.08 | 10 | HSDAVFTDNYTRLRKQMAVKKYLNSILK [R3P43] |

Second part, the molecule before the results:

| Molecule | R3 EC50 [nM] | R3 Selectivity |
| --- | --- | --- |
| HSDAVFTDNYTRLRKQMAAKKYLNSIKKGGT [R3P26] | 0.55 | > 180 |
| HSDAVFTDNYTRLRKQLAVKKYLNDIKNGGT [R3P29] | 0.5 | > 200 |
| HSDAVFTDNYTRLRKQLAAKKYLNSIKNGGT [R3P30] | 0.4 | 50 |
| HSDAVFTDNYTRLRKQLAAKKYLNDIKKGG [R3P31] | 0.3 | > 300 |
| HSDAVFTDNYTRLRKQLAAKKYLNDIKKG [R3P32] | 0.4 | 200 |
| HSDAVFTDNYTRLRKQLAAKKYLNDIKK [R3P33] | 0.5 | > 200 |
| HSDAVFTDNYTRLRKQLAAKKYLNDIKKQ [R3P34] | 1.4 | > 70 |
| HSDAVFTDNYTRLRKQLAAKKYLNDIKKNQ [R3P35] | 2.6 | > 40 |
| HSDAVFTDNYTRLRKQLAAKKYLNDIKKKRY [R3P36] | 0.4 | > 200 |
| HSDAVFTDNYTRLRKQMAVKKYLNSIKK [R3P41] | 0.08 | 100 |
